Read-outs that look alike come from different tables or passages of the source.
Legend:
[1] = molecular target: TSHR260-alkaline phosphatase (TSHR260-AP) (human) (UniProt P05187); test: TSHR260-AP bridge ELISA, full length TSHR on wells; 10 µg/mL, diluted in HBD
[2] = molecular target: human TSH receptor (full length, wild type) expressed in CHO cells (human) (UniProt P16473); test: cell-based or functional assay
[3] = molecular target: TSHR260-alkaline phosphatase (TSHR260-AP) (human) (UniProt P05187); test: TSHR260-AP bridge ELISA, full length TSHR on wells; 0.05 µg/mL, diluted in assay buffer
[4] = molecular target: TSHR260-alkaline phosphatase (TSHR260-AP) (human) (UniProt P05187); test: TSHR260-AP bridge ELISA, full length TSHR on wells; 0.05 µg/mL, diluted in HBD
[5] = molecular target: TSHR260-alkaline phosphatase (TSHR260-AP) (human) (UniProt P05187); test: TSHR260-AP bridge ELISA, full length TSHR on wells; 0.01 µg/mL, diluted in HBD
[6] = molecular target: TSHR260-alkaline phosphatase (TSHR260-AP) (human) (UniProt P05187); test: TSHR260-AP bridge ELISA, full length TSHR on wells; 250 µg/mL, diluted in HBD
TSHR260-AP (human) [7] = test: TSHR260-AP bridge ELISA (full length TSHR on wells, TSHR260-AP in solution); IgG 0.01 µg/mL diluted in assay buffer
[8] = molecular target: human TSHR (wild type, full length) expressed in CHO cells (human) (UniProt P16473); test: cell-based or functional assay
[9] = molecular target: TSHR260-alkaline phosphatase (TSHR260-AP) (human) (UniProt P05187); test: TSHR260-AP bridge ELISA, full length TSHR on wells; 0.01 µg/mL, diluted in assay buffer
TSHR260-AP (human) [10] = test: TSHR260-AP bridge ELISA (full length TSHR on wells, TSHR260-AP in solution); IgG 0.1 µg/mL diluted in HBD serum
TSHR260-AP (human) [11] = test: TSHR260-AP bridge ELISA (full length TSHR on wells, TSHR260-AP in solution); IgG 0.01 µg/mL diluted in HBD serum
[12] = molecular target: TSHR260-alkaline phosphatase (TSHR260-AP) (human) (UniProt P05187); test: TSHR260-AP bridge ELISA, full length TSHR on wells; 0.1 µg/mL, diluted in assay buffer
TSHR260-AP (human) [13] = test: TSHR260-AP bridge ELISA (full length TSHR on wells, TSHR260-AP in solution); IgG 0.5 µg/mL diluted in HBD serum
[14] = molecular target: human TSHR (wild type, full length) expressed in CHO cells (human) (UniProt P16473); test: cell-based or functional assay; remark: listed apart in the source
TSHR260-AP (human) [15] = test: TSHR260-AP bridge ELISA (full length TSHR on wells, TSHR260-AP in solution); IgG 1 µg/mL diluted in HBD serum
TSHR260-AP (human) [16] = test: TSHR260-AP bridge ELISA (full length TSHR on wells, TSHR260-AP in solution); IgG 250 µg/mL diluted in assay buffer
[17] = molecular target: TSHR260-alkaline phosphatase (TSHR260-AP) (human) (UniProt P05187); test: TSHR260-AP bridge ELISA, full length TSHR on wells; 0.1 µg/mL, diluted in HBD
[18] = molecular target: TSHR260-alkaline phosphatase (TSHR260-AP) (human) (UniProt P05187); test: TSHR260-AP bridge ELISA, full length TSHR on wells; 0.5 µg/mL, diluted in HBD
[19] = molecular target: human TSH receptor (full length, wild type) expressed in CHO cells (human) (UniProt P16473); test: cell-based or functional assay; remark: listed apart in the source
[20] = molecular target: human TSHR (thyroid stimulating hormone receptor) expressed in transfected CHO cells (human) (UniProt P16473); test: cell-based or functional assay
[21] = molecular target: human TSH receptor (full length, wild type) expressed in CHO cells (human) (UniProt P16473); test: cell-based or functional assay; remark: listed apart in the source
TSHR260-AP (human) [22] = test: TSHR260-AP bridge ELISA (full length TSHR on wells, TSHR260-AP in solution); IgG 0.1 µg/mL diluted in assay buffer
TSHR260-AP (human) [23] = test: TSHR260-AP bridge ELISA (full length TSHR on wells, TSHR260-AP in solution); IgG 250 µg/mL diluted in HBD serum

B1: 5C9 IgG (antibody, from another filing, V domains shown)
VH: EVQLVESGGGLIQPGGSLRLSCAASGFTVSSNYMSWVRQAPGKGLEWVSVTYSGGSTSYADSVKGRFTISRDNSKNTLYLQMNSLRAEDTAVYYCARGGRYCSSISCYARSGCDYWGQGTLVTVSS
VL: AIQMTQSPSSLSASVGDRVTITCRASQSISNYLNWYQQKPGKAPKLLIYAASSLQSGVPSRFSGSGSGTDFTLTISSLQPEDFATYYCQQSYSSPSTTFGQGTKLEIK
Question: With B1 as the binder, how does the Mean absorbance at 405 nm (absorbance at 405 nm) [1] read?
Answer: 0.004

Question: And the % Inhibition; T7 serum + 100 µg/mL 5C9 IgG [2]?
Answer: 97.7%

Question: And the % Inhibition; T8 serum + 100 µg/mL 5C9 IgG [2]?
Answer: 97.9%

Question: What about the % Inhibition; T9 serum + 100 µg/mL 5C9 IgG [2] of the same binder?
Answer: 94.7%

Question: What about the Cyclic AMP concentration; HBD + 100 µg/mL 5C9 IgG [2] of the same binder?
Answer: 2.7 pmol/mL

Question: And the Cyclic AMP concentration; T7 serum + 100 µg/mL 5C9 IgG [2]?
Answer: 2.1 pmol/mL

Question: What about the Cyclic AMP concentration; T8 serum + 100 µg/mL 5C9 IgG [2] of the same binder?
Answer: 1.8 pmol/mL

Question: What about the Cyclic AMP concentration; T9 serum + 100 µg/mL 5C9 IgG [2] of the same binder?
Answer: 3 pmol/mL

Question: And the Mean absorbance at 405 nm (absorbance at 405 nm) [3]?
Answer: -0.008

Question: And the Mean absorbance at 405 nm (absorbance at 405 nm) [4]?
Answer: -0.003

Question: What about the Mean absorbance at 405 nm (absorbance at 405 nm) [5] of the same binder?
Answer: 0.017

Question: What about the Mean absorbance at 405 nm (absorbance at 405 nm) [6] of the same binder?
Answer: 0.058

Question: What about the Mean absorbance at 405 nm (absorbance at 405 nm) (TSHR260-AP (human) [7]) of the same binder?
Answer: -0.001

Question: What about the % Inhibition of T13 serum stimulation; 100 µg/mL 5C9 IgG [8] of the same binder?
Answer: 97.5%

Question: And the % Inhibition of T14 serum stimulation; 100 µg/mL 5C9 IgG [8]?
Answer: 94.9%

Question: And the % Inhibition of T15 serum stimulation; 100 µg/mL 5C9 IgG [8]?
Answer: 96.9%

Question: And the Cyclic AMP concentration; 100 µg/mL 5C9 IgG alone [8]?
Answer: 0.9 pmol/mL

Question: And the Cyclic AMP concentration; HBD + 100 µg/mL 5C9 IgG [8]?
Answer: 1 pmol/mL

Question: And the Cyclic AMP concentration; T13 serum + 100 µg/mL 5C9 IgG [8]?
Answer: 1.2 pmol/mL

Question: And the Cyclic AMP concentration; T14 serum + 100 µg/mL 5C9 IgG [8]?
Answer: 1.4 pmol/mL

Question: What about the Cyclic AMP concentration; T15 serum + 100 µg/mL 5C9 IgG [8] of the same binder?
Answer: 1.6 pmol/mL

Question: What about the Mean absorbance at 405 nm (absorbance at 405 nm) [9] of the same binder?
Answer: -0.001

Question: And the Mean absorbance at 405 nm (absorbance at 405 nm) (TSHR260-AP (human) [10])?
Answer: -0.005

Question: What about the Mean absorbance at 405 nm (absorbance at 405 nm) (TSHR260-AP (human) [11]) of the same binder?
Answer: 0.017

Question: What about the Mean absorbance at 405 nm (absorbance at 405 nm) [12] of the same binder?
Answer: -0.013

Question: And the Mean absorbance at 405 nm (absorbance at 405 nm) (TSHR260-AP (human) [13])?
Answer: 0.016

Question: And the % Inhibition of T8 serum stimulation; 0.01 µg/mL 5C9 IgG [14]?
Answer: 0%

Question: What about the % Inhibition of T8 serum stimulation; 0.1 µg/mL 5C9 IgG [14] of the same binder?
Answer: 91%

Question: And the % Inhibition of T8 serum stimulation; 1 µg/mL 5C9 IgG [14]?
Answer: 96%

Question: What about the % Inhibition of T8 serum stimulation; 10 µg/mL 5C9 IgG [14] of the same binder?
Answer: 97%

Question: What about the % Inhibition of T8 serum stimulation; 100 µg/mL 5C9 IgG [14] of the same binder?
Answer: 97%

Question: What about the Cyclic AMP concentration; 0.01 µg/mL 5C9 IgG + T8 [14] of the same binder?
Answer: 53.7 pmol/mL

Question: What about the Cyclic AMP concentration; 0.1 µg/mL 5C9 IgG + T8 [14] of the same binder?
Answer: 4.6 pmol/mL

Question: And the Cyclic AMP concentration; 1 µg/mL 5C9 IgG + T8 [14]?
Answer: 2.2 pmol/mL

Question: And the Cyclic AMP concentration; 10 µg/mL 5C9 IgG + T8 [14]?
Answer: 1.7 pmol/mL

Question: And the Cyclic AMP concentration; 100 µg/mL 5C9 IgG + T8 [14]?
Answer: 1.7 pmol/mL

Question: And the Cyclic AMP concentration; 100 µg/mL 5C9 IgG alone [14]?
Answer: 1.2 pmol/mL

Question: What about the Mean absorbance at 405 nm (absorbance at 405 nm) (TSHR260-AP (human) [15]) of the same binder?
Answer: 0.045

Question: And the Mean absorbance at 405 nm (absorbance at 405 nm) (TSHR260-AP (human) [16])?
Answer: 1.12

Question: What about the Mean absorbance at 405 nm (absorbance at 405 nm) [17] of the same binder?
Answer: -0.005

Question: And the Mean absorbance at 405 nm (absorbance at 405 nm) [18]?
Answer: 0.016

Question: And the % Inhibition; T10 serum + 100 µg/mL 5C9 IgG [19]?
Answer: 98.4%

Question: And the % Inhibition; T11 serum + 100 µg/mL 5C9 IgG [19]?
Answer: 8.5%

Question: And the % Inhibition; T12 serum + 100 µg/mL 5C9 IgG [19]?
Answer: 96.3%

Question: What about the Cyclic AMP concentration; 100 µg/mL 5C9 IgG alone [19] of the same binder?
Answer: 0.9 pmol/mL

Question: And the Cyclic AMP concentration; HBD + 100 µg/mL 5C9 IgG [19]?
Answer: 1.1 pmol/mL

Question: What about the Cyclic AMP concentration; T10 serum + 100 µg/mL 5C9 IgG [19] of the same binder?
Answer: 0.9 pmol/mL

Question: And the Cyclic AMP concentration; T11 serum + 100 µg/mL 5C9 IgG [19]?
Answer: 37.5 pmol/mL

Question: What about the Cyclic AMP concentration; T12 serum + 100 µg/mL 5C9 IgG [19] of the same binder?
Answer: 1.6 pmol/mL

Question: And the % Inhibition; 3 ng/mL M22 IgG + 0.001 µg/mL 5C9 IgG [20]?
Answer: 7.7%

Question: And the % Inhibition; 3 ng/mL M22 IgG + 0.01 µg/mL 5C9 IgG [20]?
Answer: 25.2%

Question: And the % Inhibition; 3 ng/mL M22 IgG + 0.1 µg/mL 5C9 IgG [20]?
Answer: 92.8%

Question: And the % Inhibition; 3 ng/mL M22 IgG + 1 µg/mL 5C9 IgG [20]?
Answer: 97.1%

Question: And the % Inhibition; 3 ng/mL M22 IgG + 10 µg/mL 5C9 IgG [20]?
Answer: 94.4%

Question: What about the % Inhibition; 3 ng/mL M22 IgG + 100 µg/mL 5C9 IgG [20] of the same binder?
Answer: 97.1%

Question: And the Cyclic AMP concentration; 3 ng/mL M22 IgG + 0.001 µg/mL 5C9 IgG [20]?
Answer: 41 pmol/mL

Question: What about the Cyclic AMP concentration; 3 ng/mL M22 IgG + 0.01 µg/mL 5C9 IgG [20] of the same binder?
Answer: 33.2 pmol/mL

Question: What about the Cyclic AMP concentration; 3 ng/mL M22 IgG + 0.1 µg/mL 5C9 IgG [20] of the same binder?
Answer: 3.2 pmol/mL

Question: What about the Cyclic AMP concentration; 3 ng/mL M22 IgG + 1 µg/mL 5C9 IgG [20] of the same binder?
Answer: 1.3 pmol/mL

Question: And the Cyclic AMP concentration; 3 ng/mL M22 IgG + 10 µg/mL 5C9 IgG [20]?
Answer: 2.5 pmol/mL

Question: What about the Cyclic AMP concentration; 3 ng/mL M22 IgG + 100 µg/mL 5C9 IgG [20] of the same binder?
Answer: 1.3 pmol/mL

Question: What about the Cyclic AMP concentration; 100 µg/mL 5C9 IgG [20] of the same binder?
Answer: 1.7 pmol/mL

Question: And the % Inhibition; T1 serum + 100 µg/mL 5C9 IgG [21]?
Answer: 98.7%

Question: And the % Inhibition; T2 serum + 100 µg/mL 5C9 IgG [21]?
Answer: 98.2%

Question: What about the % Inhibition; T3 serum + 100 µg/mL 5C9 IgG [21] of the same binder?
Answer: 97.8%

Question: What about the Cyclic AMP concentration; 100 µg/mL 5C9 IgG alone [21] of the same binder?
Answer: 1 pmol/mL

Question: What about the Cyclic AMP concentration; HBD + 100 µg/mL 5C9 IgG [21] of the same binder?
Answer: 0.9 pmol/mL

Question: And the Cyclic AMP concentration; T1 serum + 100 µg/mL 5C9 IgG [21]?
Answer: 1.3 pmol/mL

Question: And the Cyclic AMP concentration; T2 serum + 100 µg/mL 5C9 IgG [21]?
Answer: 1.1 pmol/mL

Question: What about the Cyclic AMP concentration; T3 serum + 100 µg/mL 5C9 IgG [21] of the same binder?
Answer: 1.4 pmol/mL

Question: What about the Mean absorbance at 405 nm (absorbance at 405 nm) (TSHR260-AP (human) [22]) of the same binder?
Answer: -0.013

Question: And the Mean absorbance at 405 nm (absorbance at 405 nm) (TSHR260-AP (human) [23])?
Answer: 0.058
